Laboratory results published in paper PMC11484706.

Key:
Assay in all cases: PU-beads capture (affinity pull-down), immunoblot band quantification
Details in all cases: HEK293 cells transfected with the mutant; n = 3; input = 2% of protein incubated with the beads; read off a plot
[1] = biological target: PU-beads (PU-H71 epichaperome affinity probe)
HOP (endogenous, HEK293) = biological target: HOP (endogenous, HEK293)
[2] = biological target: HSP110 (endogenous, HEK293)
[3] = biological target: AHA1 (endogenous, HEK293)

response (normalized to MDA-MB-468) [1]: 0.65
response (normalized to MDA-MB-468) (HOP (endogenous, HEK293)): 0.25
response (normalized to MDA-MB-468) [2]: 0.63
response (normalized to MDA-MB-468) [3]: 0.65
Substance: mCherry WT HSP90β (HEK293) S226A; S255A
